T1: NHERF3_1, Q5T2W1
T1 sequence (Q5T2W1 4-100, limits assumed, looked up): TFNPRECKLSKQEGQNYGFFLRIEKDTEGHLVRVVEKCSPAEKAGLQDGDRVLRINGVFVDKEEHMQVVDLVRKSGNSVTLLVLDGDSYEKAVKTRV

T2: DLG3_1, Q92796
T2 sequence (Q92796 125-227, limits assumed, looked up): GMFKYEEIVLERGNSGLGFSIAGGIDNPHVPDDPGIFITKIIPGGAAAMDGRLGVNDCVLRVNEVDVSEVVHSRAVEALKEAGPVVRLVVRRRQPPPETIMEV

T3: MPDZ_10, O75970
T3 sequence (O75970 1624-1722, limits assumed, looked up): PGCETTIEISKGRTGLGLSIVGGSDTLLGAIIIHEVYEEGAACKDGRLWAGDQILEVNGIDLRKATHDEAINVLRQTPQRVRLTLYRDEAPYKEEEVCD

T4: HTRA3, P83110
T4 sequence (P83110 354-453, limits assumed, looked up): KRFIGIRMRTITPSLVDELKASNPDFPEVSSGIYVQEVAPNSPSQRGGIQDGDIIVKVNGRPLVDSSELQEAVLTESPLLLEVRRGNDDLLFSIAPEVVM

T5: NHERF3_3, Q5T2W1
T5 sequence (Q5T2W1 238-333, limits assumed, looked up): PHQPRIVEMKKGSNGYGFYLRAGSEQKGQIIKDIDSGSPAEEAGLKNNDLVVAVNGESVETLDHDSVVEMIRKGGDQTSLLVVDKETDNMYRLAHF

T6: MPP6, Q9NZW5
T6 sequence (Q9NZW5 125-219, limits assumed, looked up): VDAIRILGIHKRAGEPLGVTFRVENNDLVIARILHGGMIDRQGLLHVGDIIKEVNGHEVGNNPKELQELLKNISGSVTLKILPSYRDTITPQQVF

T7: TJP3_3, O95049
T7 sequence (O95049 375-456, limits assumed, looked up): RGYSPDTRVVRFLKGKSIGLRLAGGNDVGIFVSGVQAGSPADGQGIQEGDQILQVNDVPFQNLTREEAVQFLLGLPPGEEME

T8: APBA2_1, Q99767
T8 sequence (Q99767 563-664, limits assumed, looked up): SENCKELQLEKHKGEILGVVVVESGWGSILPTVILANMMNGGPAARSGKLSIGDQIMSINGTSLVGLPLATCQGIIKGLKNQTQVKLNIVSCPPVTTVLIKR

T9: DFNB31_3, Q9P202
T9 sequence (Q9P202 811-907, limits assumed, looked up): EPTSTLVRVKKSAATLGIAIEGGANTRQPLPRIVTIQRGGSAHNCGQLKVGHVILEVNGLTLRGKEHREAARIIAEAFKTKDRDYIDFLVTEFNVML

T10: RAPGEF6, Q8TEU7
T10 sequence (Q8TEU7 525-625, limits assumed, looked up): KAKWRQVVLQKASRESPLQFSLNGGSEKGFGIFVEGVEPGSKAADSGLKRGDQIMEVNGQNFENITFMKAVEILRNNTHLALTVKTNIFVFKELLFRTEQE

T11: SNTA1, Q13424
T11 sequence (Q13424 82-180, limits assumed, looked up): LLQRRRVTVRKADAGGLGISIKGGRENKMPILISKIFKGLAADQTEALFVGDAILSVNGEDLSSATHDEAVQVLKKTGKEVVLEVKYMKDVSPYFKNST

T12: LNX2_2, Q8N448
T12 sequence (Q8N448 334-432, limits assumed, looked up): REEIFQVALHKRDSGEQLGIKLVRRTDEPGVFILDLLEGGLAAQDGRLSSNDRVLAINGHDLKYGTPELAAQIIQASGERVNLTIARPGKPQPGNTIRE


Key:
Assay in all cases: holdup assay
Design in all cases: key: below the threshold = too weak to quantify, mostly under pKd 3.1 to 4
Conditions in all cases: plain residues with an end cap or a label only (N-terminal biotin on a linker: ado-ado)
NHERF3_1, Q5T2W1 = biological target: T1, NHERF3_1, Q5T2W1
DLG3_1, Q92796 = biological target: T2, DLG3_1, Q92796
NHERF4_1, Q86UT5-2 = biological target: NHERF4_1, Q86UT5-2
MPDZ_10, O75970 = biological target: T3, MPDZ_10, O75970
PICK1, Q9NRD5 = biological target: PICK1, Q9NRD5
HTRA3, P83110 = biological target: T4, HTRA3, P83110
NHERF3_3, Q5T2W1 = biological target: T5, NHERF3_3, Q5T2W1
MAGI1_2, Q96QZ7 = biological target: MAGI1_2, Q96QZ7
LNX1_2, Q8TBB1 = biological target: LNX1_2, Q8TBB1
Inadl_2, Q8NI35 = biological target: Inadl_2, Q8NI35
SCRIB_3, Q14160 = biological target: SCRIB_3, Q14160
MPP6, Q9NZW5 = biological target: T6, MPP6, Q9NZW5
PDLIM1, O00151 = biological target: PDLIM1, O00151
AHNAK1, Q09666 = biological target: AHNAK1, Q09666
Inadl_9, Q8NI35 = biological target: Inadl_9, Q8NI35
NOS1, P29475 = biological target: NOS1, P29475
TJP3_3, O95049 = biological target: T7, TJP3_3, O95049
APBA2_1, Q99767 = biological target: T8, APBA2_1, Q99767
DFNB31_3, Q9P202 = biological target: T9, DFNB31_3, Q9P202
GORASP1, Q9BQQ3 = biological target: GORASP1, Q9BQQ3
RAPGEF6, Q8TEU7 = biological target: T10, RAPGEF6, Q8TEU7
DLG1_3, Q12959 = biological target: DLG1_3, Q12959
LDB3, O75112 = biological target: LDB3, O75112
DLG1_2, Q12959 = biological target: DLG1_2, Q12959
SNTA1, Q13424 = biological target: T11, SNTA1, Q13424
LNX2_2, Q8N448 = biological target: T12, LNX2_2, Q8N448

Chain of DLG1_3, Q12959 (Q12959 457-571): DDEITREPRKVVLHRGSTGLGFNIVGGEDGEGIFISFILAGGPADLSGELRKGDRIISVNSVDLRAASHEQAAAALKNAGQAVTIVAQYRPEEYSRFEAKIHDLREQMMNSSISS
Chain of PDLIM1, O00151 (O00151 1-87): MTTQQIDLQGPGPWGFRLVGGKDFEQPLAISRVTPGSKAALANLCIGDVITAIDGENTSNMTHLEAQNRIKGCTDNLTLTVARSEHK
Chain of LDB3, O75112 (O75112 1-94): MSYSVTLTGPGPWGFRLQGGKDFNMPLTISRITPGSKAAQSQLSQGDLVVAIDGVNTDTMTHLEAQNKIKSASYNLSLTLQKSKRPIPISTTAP
Chain of LNX1_2, Q8TBB1 (Q8TBB1 371-470): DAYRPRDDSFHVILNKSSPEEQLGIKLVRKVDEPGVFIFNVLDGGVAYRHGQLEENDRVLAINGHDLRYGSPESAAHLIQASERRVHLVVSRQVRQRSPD
Chain of GORASP1, Q9BQQ3 (Q9BQQ3 1-208): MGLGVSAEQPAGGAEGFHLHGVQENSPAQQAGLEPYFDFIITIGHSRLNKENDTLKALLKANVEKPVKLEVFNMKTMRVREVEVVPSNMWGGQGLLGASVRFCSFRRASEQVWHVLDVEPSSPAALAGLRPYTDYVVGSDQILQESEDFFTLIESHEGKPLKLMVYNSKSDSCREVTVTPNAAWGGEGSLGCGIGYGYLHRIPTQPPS
Chain of MAGI1_2, Q96QZ7 (Q96QZ7 456-580): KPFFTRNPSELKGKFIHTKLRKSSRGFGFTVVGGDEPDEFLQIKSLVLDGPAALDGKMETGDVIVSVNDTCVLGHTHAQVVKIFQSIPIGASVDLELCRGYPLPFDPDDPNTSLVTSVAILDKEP
Chain of Inadl_2, Q8NI35 (Q8NI35 238-335): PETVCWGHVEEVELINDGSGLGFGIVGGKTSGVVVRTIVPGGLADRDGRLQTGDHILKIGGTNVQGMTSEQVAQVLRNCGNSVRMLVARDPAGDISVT
Chain of SCRIB_3, Q14160 (Q14160 999-1103): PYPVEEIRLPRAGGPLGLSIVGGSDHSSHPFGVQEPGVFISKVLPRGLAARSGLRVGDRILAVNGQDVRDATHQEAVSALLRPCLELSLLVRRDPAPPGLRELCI
Chain of DLG1_2, Q12959 (Q12959 314-412): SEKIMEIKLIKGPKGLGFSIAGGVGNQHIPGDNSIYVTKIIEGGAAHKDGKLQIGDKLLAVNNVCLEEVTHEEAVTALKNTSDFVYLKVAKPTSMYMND
Chain of NOS1, P29475 (P29475 9-101): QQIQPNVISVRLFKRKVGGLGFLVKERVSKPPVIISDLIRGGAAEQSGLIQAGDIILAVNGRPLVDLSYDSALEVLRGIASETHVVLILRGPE
Chain of PICK1, Q9NRD5 (Q9NRD5 17-115): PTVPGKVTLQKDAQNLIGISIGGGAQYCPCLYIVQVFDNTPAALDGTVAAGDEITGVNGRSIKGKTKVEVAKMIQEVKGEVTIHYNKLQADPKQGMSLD
Chain of Inadl_9, Q8NI35 (Q8NI35 1530-1615): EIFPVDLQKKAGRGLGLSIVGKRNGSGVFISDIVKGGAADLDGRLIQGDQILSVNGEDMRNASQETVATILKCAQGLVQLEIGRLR
Chain of NHERF4_1, Q86UT5-2 (Q86UT5 other isoform, or with tags, fused parts or gaps): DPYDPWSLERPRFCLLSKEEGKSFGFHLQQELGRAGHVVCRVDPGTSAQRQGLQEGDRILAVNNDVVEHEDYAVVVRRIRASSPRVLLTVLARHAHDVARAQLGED
Chain of AHNAK1, Q09666 (Q09666 4-100): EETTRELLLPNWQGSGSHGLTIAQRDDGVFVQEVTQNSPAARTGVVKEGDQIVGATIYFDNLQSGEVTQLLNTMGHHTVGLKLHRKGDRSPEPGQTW

pKd (NHERF3_1, Q5T2W1) | pKd (DLG3_1, Q92796) | pKd (NHERF4_1, Q86UT5-2) | pKd (MPDZ_10, O75970) | pKd (PICK1, Q9NRD5) | pKd (HTRA3, P83110) | pKd (NHERF3_3, Q5T2W1) | pKd (MAGI1_2, Q96QZ7) | pKd (LNX1_2, Q8TBB1) | pKd (Inadl_2, Q8NI35) | pKd (SCRIB_3, Q14160) | pKd (MPP6, Q9NZW5) | pKd (PDLIM1, O00151) | pKd (AHNAK1, Q09666) | pKd (Inadl_9, Q8NI35) | pKd (NOS1, P29475) | pKd (TJP3_3, O95049) | pKd (APBA2_1, Q99767) | pKd (DFNB31_3, Q9P202) | pKd (GORASP1, Q9BQQ3) | Binder | other results
below the threshold | below the threshold | below the threshold | below the threshold | 4.18 | below the threshold | below the threshold | below the threshold | below the threshold | below the threshold | below the threshold | below the threshold | below the threshold | below the threshold | below the threshold | 4.16 | below the threshold | below the threshold | below the threshold | below the threshold | TRKRSGEAAV [PFKM, P08237] | pKd (RAPGEF6, Q8TEU7): below the threshold; pKd (DLG1_3, Q12959): below the threshold; pKd (LDB3, O75112): below the threshold; pKd (DLG1_2, Q12959): 3.95; pKd (SNTA1, Q13424): below the threshold; pKd (LNX2_2, Q8N448): 3.53
below the threshold | 4.28 | below the threshold | below the threshold | below the threshold | below the threshold | below the threshold | 4.47 | 3.56 | below the threshold | 3.94 | below the threshold | below the threshold | below the threshold | below the threshold | 3.81 | below the threshold | below the threshold | below the threshold | 3.78 | KPGKGSETVV [FZD4, Q9ULV1] | pKd (RAPGEF6, Q8TEU7): below the threshold; pKd (DLG1_3, Q12959): below the threshold; pKd (LDB3, O75112): below the threshold; pKd (DLG1_2, Q12959): 5.12; pKd (SNTA1, Q13424): 4.6; pKd (LNX2_2, Q8N448): 4.92
